According to patent US20190276542A1 (QILU PUGET SOUND BIOTHERAPEUTICS, published 2019):
Like-named read-outs stand apart in the source and are kept apart here.

Legend:
[1] = biological target: T1, human CTLA4 expressed on Jurkat T cells (human, UniProt P16410 36-223); assay: flow cytometry on Jurkat T cells expressing hCTLA4
T1 construct: whole, on cells; also called hCTLA4; cell surface-expressed hCTLA4
Description: After washing, the surface-bound anti-hCTLA4 antibodies were detected with a polyclonal anti-hlgG (Fc-specific) antibody labeled with fluorescein isothiocyanate (FITC)(anti-hlgG-FITC). Binding of anti-hCTLA4 antibodies were detected by flow cytometric analysis. The results were reported a geometric mean fluorescence intensity (MFI) using FlowJo software (FLOWJO, L.L.C., Ashland, Oreg., USA).

[2] = biological target: T1, human CTLA4 expressed on Jurkat T cells; assay: cell-based or functional assay
[3] = biological target: T2, CTLA4-ECD_Fc, soluble hCTLA4 comprising the extracellular domain of hCTLA4 fused to an Fc fragment (human, UniProt P16410 36-161); assay: flow cytometry; inhibition of CTLA4-ECD_Fc binding to Raji cells (hB7-1/hB7-2)
T2 construct: extracellular domain; not shown: Fc fragment
T2 sequence (P16410 36-161): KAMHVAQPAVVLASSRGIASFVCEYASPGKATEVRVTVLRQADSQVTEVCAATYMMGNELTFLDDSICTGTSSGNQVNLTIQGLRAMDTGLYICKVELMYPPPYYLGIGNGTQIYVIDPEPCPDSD
Protocol: In a first assay, inhibition of hCTLA4 binding to hB7-1 and hB7-2 expressed on the surface of Raji cells was assessed. Raji cells, which are human cells, express high levels of hB7-1 and hB7-2. […] After 30 minutes, 1×10⁵ Raji cells were added to each well and incubated for another 30 minutes. […] IC₅₀'s were calculated using GraphPad Prism software (GraphPad, Inc., La Jolla, Calif., USA).

[4] = biological target: T1, human CTLA4 expressed on Jurkat T cells; assay: cell-based or functional assay; remark: listed apart in the source
[5] = biological target: T1, human CTLA4 expressed on Jurkat T cells; assay: cell-based or functional assay; remark: listed apart in the source

T1 sequence (P16410 36-223): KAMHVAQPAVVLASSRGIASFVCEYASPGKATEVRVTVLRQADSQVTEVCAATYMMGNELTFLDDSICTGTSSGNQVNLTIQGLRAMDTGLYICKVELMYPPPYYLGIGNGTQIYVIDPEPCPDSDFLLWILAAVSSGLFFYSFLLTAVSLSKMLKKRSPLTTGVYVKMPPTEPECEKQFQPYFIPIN

B1: anti-hCTLA4 antibody 10D4 (antibody, human IgG1, V domains shown)
VH: QVQLVESGGGVVEPGRSLRLSCTASGFTFSSYGMHWVRQAPGKGLEWVAVIWYHPSKKDYADSAKGRFTISRDNSKNTLYLQMNSLRAEDTAVYYCARAGLLGYFDYWGQGTLVTVSS
VL: EIVLTQSPGTLSLSPGERATLSCRASQSVTSYLAWYQQKPGQAPRPLIYGVSSRATGIPDRFSGSGSGTDFTLTISRLEPEDFAVYYCQQYGRYPFTFGPGTKVDIK
notes: unaltered form; also called Anti-CTLA4 10D4; anti-hCTLA4 #10D4
EC50 [1]: 0.085 nM
IC50, luciferase reporter assay (Jurkat cells with CTLA4 plus Raji cells with hCD80 and hCD86) [2]: 2.12 nM
IC50 [3]: 3.3 nM
IC50, luciferase (RLU), CTLA4 Dual-Cell Reporter Assay (Jurkat cells with hCTLA4 plus Raji cells) [4]: 6.12 nM

B2: altered anti-hCTLA4 11F4 (antibody, human IgG1, kappa, V domains shown)
VH: QVQLVESGGGVVEPGRSLRLSCAASGFTFSSYGMHWVRQAPGKRLEWVAVIWYKPSEKDYADSAKGRFTISRDNSKNTLYLQMNSLRAEDTAVYYCARGGLLGYFDYWGDGTLVTVSS
VL: EIVLTQSPGTLSLSPGERATLSCRASQSINSYLAWYQQKPGQRPRPLIYGVSSRATGIPDRFSGSGSGTDFTLTISRLEPEDFAVYYCQQYGRYPFTFGDGTKVDIKR
IC50, luciferase reporter assay (Jurkat cells with CTLA4 plus Raji cells with hCD80 and hCD86) [5]: 8.68 nM

B3: anti-hCTLA4 antibody 11F4 (antibody, human IgG1, V domains shown)
VH: QVQLVESGGGVVEPGRSLRLSCAASGFTFSSYGMHWVRQAPGKGLEWVAVIWYKPSEKDYADSAKGRFTISRDNSKNTLYLQMNSLRAEDTAVYYCARGGLLGYFDYWGQGTLVTVSS
VL: EIVLTQSPGTLSLSPGERATLSCRASQSINSYLAWYQQKPGQAPRPLIYGVSSRATGIPDRFSGSGSGTDFTLTISRLEPEDFAVYYCQQYGRYPFTFGPGTKVDIK
notes: unaltered form; also called Anti-CTLA4 11F4; anti-hCTLA4 #11F4
IC50, luciferase reporter assay (Jurkat cells with CTLA4 plus Raji cells with hCD80 and hCD86) [5]: 4.8 nM
EC50 [1]: 0.158 nM
IC50 [3]: 7.5 nM
IC50, luciferase (RLU), CTLA4 Dual-Cell Reporter Assay (Jurkat cells with hCTLA4 plus Raji cells) [4]: 7.39 nM
